# Test results published in patent publication US20080020399A1.
# Assays:
# [1] = target: rat liver insulin receptor purified by wheat germ lectin affinity chromatography (rat) (UniProt P15127); assay: cell-based or functional assay
# [2] = tested on: biotinylated hIRS-1-p30 (domain D516-P777 of human IRS-1)
# Sequence of biotinylated hIRS-1-p30 (domain D516-P777 of human IRS-1) (chain, as listed by the source): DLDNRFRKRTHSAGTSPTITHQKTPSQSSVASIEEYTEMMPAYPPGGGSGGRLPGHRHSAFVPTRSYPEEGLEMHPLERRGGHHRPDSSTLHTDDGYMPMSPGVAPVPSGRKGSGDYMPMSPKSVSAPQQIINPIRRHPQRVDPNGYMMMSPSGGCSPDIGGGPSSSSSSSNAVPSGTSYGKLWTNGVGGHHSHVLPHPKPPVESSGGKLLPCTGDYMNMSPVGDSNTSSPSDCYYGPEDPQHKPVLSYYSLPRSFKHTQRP
# Sequence of rat liver insulin receptor purified by wheat germ lectin affinity chromatography (rat) (P15127 27-1383 limits assumed, form in doubt): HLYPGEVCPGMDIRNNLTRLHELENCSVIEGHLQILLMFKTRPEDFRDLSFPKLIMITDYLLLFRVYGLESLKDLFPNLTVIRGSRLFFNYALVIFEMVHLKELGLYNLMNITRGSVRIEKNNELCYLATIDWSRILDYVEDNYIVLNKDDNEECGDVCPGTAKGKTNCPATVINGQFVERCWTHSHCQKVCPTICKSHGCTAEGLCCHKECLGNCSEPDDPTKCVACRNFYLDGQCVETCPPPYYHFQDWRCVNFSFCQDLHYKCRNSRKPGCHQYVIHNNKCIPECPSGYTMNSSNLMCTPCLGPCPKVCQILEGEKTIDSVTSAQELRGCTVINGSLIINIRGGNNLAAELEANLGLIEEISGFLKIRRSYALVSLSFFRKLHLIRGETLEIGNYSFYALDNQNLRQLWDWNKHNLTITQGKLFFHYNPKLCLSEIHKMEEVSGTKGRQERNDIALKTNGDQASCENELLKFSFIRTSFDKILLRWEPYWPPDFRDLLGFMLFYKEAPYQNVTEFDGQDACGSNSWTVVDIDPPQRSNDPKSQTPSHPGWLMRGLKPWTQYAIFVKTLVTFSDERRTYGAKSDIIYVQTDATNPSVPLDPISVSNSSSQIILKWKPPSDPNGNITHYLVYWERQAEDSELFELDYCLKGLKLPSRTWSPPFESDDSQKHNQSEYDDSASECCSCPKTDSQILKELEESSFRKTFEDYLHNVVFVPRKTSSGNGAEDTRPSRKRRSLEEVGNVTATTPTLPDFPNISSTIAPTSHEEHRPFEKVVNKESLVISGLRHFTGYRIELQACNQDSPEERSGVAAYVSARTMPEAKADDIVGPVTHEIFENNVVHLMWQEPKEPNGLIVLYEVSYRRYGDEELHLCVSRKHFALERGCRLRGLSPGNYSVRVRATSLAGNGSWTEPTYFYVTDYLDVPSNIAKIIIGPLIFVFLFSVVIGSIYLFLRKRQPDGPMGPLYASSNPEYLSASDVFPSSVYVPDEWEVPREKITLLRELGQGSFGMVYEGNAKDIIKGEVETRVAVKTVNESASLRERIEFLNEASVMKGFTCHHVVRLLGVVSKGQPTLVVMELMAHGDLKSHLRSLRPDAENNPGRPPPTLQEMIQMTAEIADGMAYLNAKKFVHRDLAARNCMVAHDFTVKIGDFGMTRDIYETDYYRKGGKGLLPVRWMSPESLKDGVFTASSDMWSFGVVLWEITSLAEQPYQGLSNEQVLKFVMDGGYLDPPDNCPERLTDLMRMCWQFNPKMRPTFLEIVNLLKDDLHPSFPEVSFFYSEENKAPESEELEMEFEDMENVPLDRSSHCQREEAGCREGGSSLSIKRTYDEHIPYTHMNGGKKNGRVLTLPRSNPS
ALPHAScreen readout of tyrosine phosphorylation of 85 nM biotinylated IRS fragment by the insulin-stimulated receptor [1] [nM],Substance,"phosphorylation of the biotinylated IRS-1 fragment (ALPHAScreen, p-Ser antibody) [2]"
10,human insulin (from UniProt P01308 25-54; P01308 90-110) (ligand),
,protein kinase C (serine kinase PKCδ),can be phosphorylated in the biotinylated state by the serine kinase PKCδ
